Data from patent US20240317859A1 (published 2024).
Substitutions are numbered along the chain they refer to.

T1: FcγRIIB/C (CD32b/c) (FcγRIIB) (R&D Systems) (UniProt P31994 46-217)
T1 chain: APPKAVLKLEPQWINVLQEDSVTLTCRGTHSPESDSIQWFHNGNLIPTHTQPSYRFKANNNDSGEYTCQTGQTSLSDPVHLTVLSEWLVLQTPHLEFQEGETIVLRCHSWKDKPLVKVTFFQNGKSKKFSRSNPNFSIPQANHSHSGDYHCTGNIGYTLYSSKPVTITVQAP

B1: X3-KL HM268-K8 (antibody)
chain 1: QVQLVQSGPEVKKPGASVKVVCKTSGYTFTSYYIQWLKQRPGQGLEWIGWIYFGDASTKYNEKFKGRVTMTADKSTSTAYMELRSLRSDDTAVYYCASYYGSYFDYWGQGTTVTVSSASTKGPSVFPLAPSSKSTSGGTAALGCLVKDYFPEPVTVSWNSGALTSGVHTFPAVLQSSGLYSLSSVVTVPSSSLGTQTYICNVNHKPSNTKVDKKVEPKSCDKTHTCPPCPAPELLGGPDVFLFPPKPKDTLMISRTPEVTCVVVDVSDEDPEVKFNWYVDGVEVHNAKTKPREEQYNSTYRVVSVLTVLHQDWLNGKEYKCAVSNKAYPAPIEKTISKAKGQPREPQVYTLPPSRDELTKNQVSLTCLVKGFYPSDIAVEWESNGQPENNYKTTPPVLDSDGSFFLYSKLTVDKSRWQQGNVFSCSVMHEALHNHYTQKSLSLSPGK
chain 2: DIQMTQSPSSLSASVGDRVTITCRASQDISNYLNWYQQKPDGTVKLLIYSTSRLHSGVPSRFSGSGSGTDYTLTISSLQPEDFATYYCQQGSTLPFTFGQGTKLEIKRTVAAPSVFIFPPSDEQLKSGTASVVCLLNNFYPREAKVQWKVDNALQSGNSQESVTEQDSKDSTYSLSSTLTLSKADYEKHKVYACEVTHQGLSSPVTKSFNRGEC
B2: X4-KS HM268-K8 (antibody)
chain 1: B1 chain 1 with S267G, I332E
chain 2: B1 chain 2
B3: X3-KSI HM268-K8 (antibody)
chain 1: B1 chain 1 with S267G, Y328L, I332E
chain 2: B1 chain 2
B4: X3-KE HM268-K8 (antibody)
chain 1: B1 chain 1 with E293A, Y328L
chain 2: B1 chain 2
B5: X3-KI HM268-K8 (antibody)
chain 1: B1 chain 1 with Y328L, I332E
chain 2: B1 chain 2
B6: X3-K HM268-K8 (antibody)
chain 1: B1 chain 1 with Y328L
chain 2: B1 chain 2
B7: X3-KSL HM268-K8 (antibody)
chain 1: B1 chain 1 with S267G
chain 2: B1 chain 2
B8: X3-KS-DF HM268-K8 (antibody)
chain 1: B1 chain 1 with S267G, Y328L
chain 2: B1 chain 2

These binders were tested against Fc gamma RIIIA/CD16a, CF (FcγRIIIA(V158)) (R&D Systems) (assay: SPR).
Chain of Fc gamma RIIIA/CD16a, CF (FcγRIIIA(V158)) (R&D Systems) (chain, as listed by the source): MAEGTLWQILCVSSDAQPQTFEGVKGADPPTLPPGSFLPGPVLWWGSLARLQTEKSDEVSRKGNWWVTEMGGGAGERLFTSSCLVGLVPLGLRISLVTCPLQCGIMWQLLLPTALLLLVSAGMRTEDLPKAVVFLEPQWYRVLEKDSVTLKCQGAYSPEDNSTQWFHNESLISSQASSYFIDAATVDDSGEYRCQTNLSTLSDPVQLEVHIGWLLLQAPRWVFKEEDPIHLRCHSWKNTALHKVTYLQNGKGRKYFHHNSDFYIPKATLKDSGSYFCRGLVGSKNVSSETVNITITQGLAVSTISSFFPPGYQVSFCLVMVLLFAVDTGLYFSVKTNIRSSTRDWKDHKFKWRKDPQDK

Kd [nM]	Binder
1250	B1
881	B2
265	B3
305	B4
162	B5
370	B6
3460	B7

Molecular target: T1, FcγRIIB/C (CD32b/c) (FcγRIIB) (R&D …)
Assay: SPR

Kd [nM]	Binder
736	B1
2550	B2
1640	B3
1110	B4
689	B5
1380	B6
1240	B7
2200	B8
